Source: publication PMC10965912, “FliH and FliI help FlhA bring strict order to flagellar protein export in Salmonella” (Communications Biology, 2024)

B1: GST-FlgN (natural protein)
chain: MTRLSEILDQMTTVLNDLKTVMDAEQQQLSVGQINGSQLQRITEEKSSLLATLDYLEQQRRLEQNAQRSANDDIAERWQAITEKTQHLRDLNQHNGWLLEGQIERNQQALEVLKPHQEPTLYGADGQTSVSHRGGKKISI
notes: FlgN, flagellar export chaperone, Salmonella enterica serovar Typhimurium (plasmid pMMGN101, pGEX-6p-1); source: Salmonella SJW1368, purified (glutathione Sepharose 4B)
B2: His-FlhAC with the Y369A/R370A/L371A/I372V (AAAV) mutation (domain or fragment)
chain: AGILIMVINVVGGLLVGVLQHGMSIGSAAESYTLLTIGDGLVAQIPALVISTAAGVIVTRVSTDQDVGEQMVGQLFSNPRVMLLAAAVLGLLGMVPGMPNLVFLLFTAALLGLAWWLRGREEKAPEEPQPVKMPENNSVVEATWNDVQLEDSLGMEVGAAAVPMVDFQQDGELLGRIRSIRKKFAQDMGFLPPVVHIRDNMDLQPARYRILMKGVEIGSGDAYPGRWLAINPGTAAGTLPGEKTVDPAFGLDAIWIESALKEQAQIQGFTVVEASTVVATHLNHLIGQFSAELFGRQEAQQLLDRVSQEMPKLTEDLVPGVVTLTTLHKVLQNLLAEKVPIRDMRTILETLAEHAPLQSDPHELTAVVRVALGRAITQQWFPGNEEVQVIGLDTALERLLLQALQGGGGLEPGLADRLLAQTQEALSRQEMLGAPPVLLVNHALRPLLSRFLRRSLPQLVVLSNLELSDNRHIRMTATIGGK
notes: Intragenic suppressor (A372V) of the AAAA mutant; also called FlhA_(C-AAAV); His-FlhA_(C-AAAV); source: E. coli BL21 Star (DE3), purified (Ni-NTA, SEC); not shown: His tag, N-terminal, kept

Tests used:
FlgK = biological target: T1, FlgK (Salmonella enterica serovar Typhimurium, UniProt P0A1J5 1-553); assay: pull-down; GST affinity chromatography: purified His-FlhAC mixed with purified GST-FlgN/FlgK complex or GST-FliJ, dialyzed overnight against PBS pH 7.4 at 4 °C, loaded on glutathione Sepharose 4B, eluted with 10 mM reduced glutathione; SDS-PAGE with CBB staining; conditions: both partners purified
T1 construct: FlgK, filament-type export substrate, Salmonella enterica serovar Typhimurium (plasmid pMKGK2, pTrc99A); source: E. coli BL21 Star (DE3), purified (Q-Sepharose anion exchange)
T1 sequence: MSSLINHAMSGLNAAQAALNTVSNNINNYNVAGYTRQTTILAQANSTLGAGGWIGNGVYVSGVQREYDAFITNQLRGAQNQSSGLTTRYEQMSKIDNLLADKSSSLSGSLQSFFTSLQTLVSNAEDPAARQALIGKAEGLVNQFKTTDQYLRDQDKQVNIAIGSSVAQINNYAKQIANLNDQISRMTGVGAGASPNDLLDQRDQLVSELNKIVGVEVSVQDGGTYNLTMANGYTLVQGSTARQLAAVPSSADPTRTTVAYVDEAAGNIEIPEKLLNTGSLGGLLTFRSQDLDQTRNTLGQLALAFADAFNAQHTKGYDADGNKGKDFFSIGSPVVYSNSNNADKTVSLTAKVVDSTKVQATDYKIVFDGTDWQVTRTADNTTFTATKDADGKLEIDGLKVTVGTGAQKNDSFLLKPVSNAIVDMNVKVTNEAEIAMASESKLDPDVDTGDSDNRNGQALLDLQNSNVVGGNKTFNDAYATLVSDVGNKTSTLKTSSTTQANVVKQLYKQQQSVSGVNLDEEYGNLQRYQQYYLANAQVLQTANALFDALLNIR

[1] = biological target: the molecule itself; assay: high-speed atomic force microscopy; ring formation of purified FlhAC monomer (2 μM) in 50 mM Tris-HCl pH 8.0, 100 mM NaCl placed on mica, room temperature; imaged in 10 mM Tris-HCl pH 6.8

Binder	binding result (FlgK)	stoichiometry N [1]
B1	binds	
B2		9
